Test results taken from the supplement of paper PMC10126150.
± gives the standard deviation of the averaged measurements.

Tested on: ATP
Assay: switch fluorescence ratio, 500 uM ATP over buffer (Cy3 cluster intensity, sum of 5 cycles each) (fold (ratio)); higher = stronger signal-on switching upon ATP binding; sequences stand for … in TCGTCGGCAGCGTCAGATGTGTATAAGAGACAGTTTTTTTTTTTTTTTTTTTTTTTTT…TC
Settings: aptamer strand: ATP DNA aptamer (quencher-CACCTGGGGGAGTATTGCGGAGGAAGG + anchor), 100 nM annealed; ATP concentration: 500 uM
Method in brief: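 Imaging in selection buffer was followed by imaging after 15 min with 500 uM ATP at 22 °C, for Cy3-labelled switching-strand clusters annealed to 100 nM quencher-labelled ATP aptamer on a modified Illumina MiSeq flow-cell. Five of these buffer/ATP cycles ran, separated by NaOH stripping and re-annealing. The fluorescence ratio per cluster is summed target-cycle over summed buffer-cycle Cy3 intensity, averaged per switch-domain sequence; clusters outside 100-1000 RFU were removed.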
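Also: ATP exposure 15 min at 22 °C before imaging.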

| Sequence | switch fluorescence ratio |
| --- | --- |
| GGAATGAGGA | 0.99242 ± 0.0004 |
| GGAATGCTAT | 0.996 ± 0.013 |
| GGAATGGCTT | 0.999 ± 0.0091 |
| GGAATTGGAT | 1 ± 0.025 |
| GGAATTTAAT | 0.998 ± 0.0014 |
| GGACACAGGC | 1.01 ± 0.023 |
| GGACAGCGCG | 1 ± 0.07 |
| GGACATATTA | 1 ± 0.028 |
| GGACATTGG | 1.03 ± 0.02 |
| GGACCAAGTG | 1.03 ± 0.025 |
| GGACCCGCCG | 1.025 ± 0.0016 |
| GGACCCTAAC | 1.08 ± 0.062 |
| GGACCGGGGT | 0.966 ± 0.034 |
| GGACGAAGGG | 1.09 ± 0.018 |
| GGACGATTTG | 1.05 ± 0.054 |
| GGACGCATAA | 3.51 ± 1.3 |
| GGACGGGAAC | 1.13 ± 0.055 |
| GGACGGGGGG | 1.01 ± 0.056 |
| GGACGGGGTC | 1.01 ± 0.013 |
| GGACGGGGTT | 0.97 ± 0.019 |
| GGACGTCTGA | 1.02 ± 0.041 |
| GGACGTTGGT | 1.02 ± 0.022 |
| GGACTAGCTT | 1.03 ± 0.032 |
| GGACTATGCT | 0.962 ± 0.011 |
| GGACTATGGT | 0.981 ± 0.014 |

| Sequence | switch fluorescence ratio |
| --- | --- |
| GGACTCTGGG | 0.966 ± 0.058 |
| GGACTTAGAT | 1.02 ± 0.039 |
| GGACTTCTTG | 0.932 ± 0.045 |
| GGACTTTCGT | 0.993 ± 0.015 |
| GGACTTTTCA | 0.96 ± 0.014 |
| GGAGAAGAGA | 0.9875 ± 0.004 |
| GGAGAAGGGT | 0.9967 ± 0.0047 |
| GGAGACCTTT | 1.03 ± 0.041 |
| GGAGACGGTT | 1 ± 0.051 |
| GGAGACGTTA | 1.02 ± 0.052 |
| GGAGAGCGCG | 0.976 ± 0.067 |
| GGAGAGGACG | 1.07 ± 0.09 |
| GGAGAGGGCT | 1.01 ± 0.024 |
| GGAGAGGGGC | 0.996 ± 0.091 |
| GGAGAGGGGG | 0.982 ± 0.027 |
| GGAGAGGTTT | 1.05 ± 0.059 |
| GGAGATAGGT | 1.04 ± 0.038 |
| GGAGCCCGGT | 1.01 ± 0.029 |
| GGAGCCTGGT | 1.01 ± 0.022 |
| GGAGCGGGGG | 1.02 ± 0.014 |
| GGAGCTTTCA | 1.05 ± 0.088 |
| GGAGGAAAGT | 1 ± 0.029 |
| GGAGGAGAGG | 1.01 ± 0.04 |
| GGAGGAGCTG | 0.95 ± 0.042 |
| GGAGGAGTTT | 1.65 ± 0.92 |

| Sequence | switch fluorescence ratio |
| --- | --- |
| GGAGGCCATG | 0.967 ± 0.01 |
| GGAGGCGGGG | 1.08 ± 0.18 |
| GGAGGGACGG | 1.029 ± 0.009 |
| GGAGGGAGGG | 1.02 ± 0.059 |
| GGAGGGCAGG | 0.9882 ± 0.0096 |
| GGAGGGCCTG | 0.986 ± 0.013 |
| GGAGGGGAAG | 1.07 ± 0.14 |
| GGAGGGGAGT | 0.999 ± 0.014 |
| GGAGGGGATC | 0.998 ± 0.022 |
| GGAGGGGGGA | 1.09 ± 0.24 |
| GGAGGGTGTC | 0.988 ± 0.044 |
| GGAGGTCTAC | 1.03 ± 0.014 |
| GGAGTAGCAG | 1.02 ± 0.074 |
| GGAGTCATGG | 1.045 ± 0.0073 |
| GGAGTCCAGG | 1.15 ± 0.032 |
| GGAGTCCGTT | 1.02 ± 0.046 |
| GGAGTCGTTG | 0.968 ± 0.011 |
| GGAGTCTTGT | 1.01 ± 0.03 |
| GGAGTGATTT | 1 ± 0.017 |
| GGAGTGGGAT | 1.03 ± 0.034 |
| GGAGTGTTGG | 1.002 ± 0.0051 |
| GGAGTTAGGC | 1 ± 0.04 |
| GGAGTTCAGG | 0.9905 ± 0.0024 |
| GGAGTTTAAA | 0.999 ± 0.043 |
| GGATAAAAAT | 1.02 ± 0.025 |

| Sequence | switch fluorescence ratio |
| --- | --- |
| GGATAAATGC | 1.02 ± 0.043 |
| GGATAACGGG | 1.02 ± 0.023 |
| GGATAAGGAG | 0.99 ± 0.051 |
| GGATACGGTG | 1.08 ± 0.061 |
| GGATACGTTG | 1.02 ± 0.052 |
| GGATAGATGG | 0.986 ± 0.02 |
| GGATAGGATT | 1.025 ± 0.0054 |
| GGATAGTCGG | 1 ± 0.028 |
| GGATATAATG | 0.985 ± 0.019 |
| GGATATAGCC | 0.994 ± 0.013 |
| GGATATGATC | 1.03 ± 0.031 |
| GGATCCGTTG | 0.978 ± 0.021 |
| GGATCGTCGG | 0.96 ± 0.019 |
| GGATCGTTCC | 1.1 ± 0.017 |
| GGATCTTAGT | 0.996 ± 0.013 |
| GGATCTTTAT | 0.9932 ± 0.0096 |
| GGATGAGTGT | 0.982 ± 0.038 |
| GGATGCAATG | 1.16 ± 0.025 |
| GGATGCATAT | 0.9894 ± 0.0044 |
| GGATGGCGGT | 0.9846 ± 0.0069 |
| GGATGGGAGG | 1.046 ± 0.0092 |
| GGATGGGGCT | 1.02 ± 0.03 |
| GGATGGGGGA | 1.02 ± 0.03 |
| GGATGGGTGC | 0.9939 ± 0.0091 |
| GGATGGTTGG | 1.012 ± 0.0068 |
